Entries after “also recorded” stand apart in the source; their conditions may differ. Bounds are passed on as bounds.

The target in assay [1] is T1, recombinant human epiregulin (rhEreg) (Homo sapiens, UniProt O14944).
T1 construct: recombinant human epiregulin containing the epidermal growth factor (EGF) domain; purchased R&D Biosciences 1195-EP
T1 sequence (O14944 63-108 limits assumed): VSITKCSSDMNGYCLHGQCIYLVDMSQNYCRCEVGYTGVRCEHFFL
In words: Inhibition of epiregulin-induced proliferation of human foreskin fibroblasts (CyQUANT). In kind it is cell-based. Particulars: rhEreg 100 ng/ml. The method, then:
Human foreskin fibroblasts (HFFs) were incubated with recombinant human epiregulin (rhEreg) in Dulbecco's Modified Eagle Medium (DMEM) containing 1% fetal bovine serum (FBS), n=3 per rhEreg concentration (left panel). HFF were incubated in media containing rhEreg 100 ng/ml along with commercially available rat anti-human/mouse epiregulin antibody (middle panel) or hEreg NAb1 (right panel), n=4 (middle panel), n=6 (right panel) per antibody concentration. Data points show mean and standard error, which were fit by interpolating from a sigmoidal standard curve. Proliferation was measured by green fluorescence protein (GFP) fluorescence at day 3 using CyQUANT Direct Cell Proliferation Assay (Invitrogen) on Synergy HTX plate reader (Biotek).
To gauge their ability to inhibit epiregulin, whether the two unique antibodies produced by the hybridoma clones could inhibit recombinant epiregulin protein in vitro was tested. Characteristic of other EGFR ligands, recombinant human epiregulin (same as used for Alloy mouse immunization) induced proliferation of cultured human foreskin fibroblasts (HFF, ATCC #SCRC-1041) (FIG. 5, left panel). Maximal proliferation occurred at 100 ng/ml, so this concentration was used in subsequent inhibition experiments. […]

For assay [2], the target named is T2, full-length epiregulin protein (Homo sapiens, UniProt O14944).
T2 construct: Cultured HFF expressed endogenous full-length epiregulin; endogenous in cells; host or cells: human foreskin fibroblasts (HFF, ATCC #SCRC-1041)
T2 sequence (O14944 63-169): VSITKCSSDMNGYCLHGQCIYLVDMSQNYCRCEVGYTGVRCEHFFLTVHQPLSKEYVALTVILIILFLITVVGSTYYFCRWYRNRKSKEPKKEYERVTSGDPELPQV
In words: HFF growth with increasing antibody in the absence of exogenous EGFR ligands. In kind it is cell-based. The conditions noted are these: increasing antibody concentrations, no exogenous EGFR ligands. The method, then: HFF were incubated with increasing concentrations of hEreg NAb1 in the absence of exogenous epidermal growth factor receptor (EGFR) ligands.
To gauge their ability to inhibit epiregulin, whether the two unique antibodies produced by the hybridoma clones could inhibit recombinant epiregulin protein in vitro was tested. Characteristic of other EGFR ligands, recombinant human epiregulin (same as used for Alloy mouse immunization) induced proliferation of cultured human foreskin fibroblasts (HFF, ATCC #SCRC-1041) (FIG. 5, left panel). Maximal proliferation occurred at 100 ng/ml, so this concentration was used in subsequent inhibition experiments. The ability of hEreg NAb1 and a commercially available rat anti-human/mouse neutralizing epiregulin antibody (R&D Systems MAB1068) to inhibit epiregulin-induced HFF proliferation was then compared. […] Cultured HFF expressed endogenous full-length epiregulin, but little to no other EGFR ligands. If HFF depend on the expression of epiregulin for growth and survival, inhibition of the endogenously produced protein should reduce their growth. […] Thus, hEreg NAb1 inhibits both the recombinant and full-length human epiregulin proteins.

Assay [3] has as its target T3, recombinant mouse epiregulin (rmEreg) (Mus musculus, UniProt Q61521).
T3 sequence (Q61521 56-101 limits assumed): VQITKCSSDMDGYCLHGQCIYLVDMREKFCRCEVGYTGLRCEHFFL
Kind of assay: Inhibition of HFF proliferation induced by mouse epiregulin. The class given is cell-based. Particulars: rmEreg 100 ng/ml. Here is the method: HFF were incubated with recombinant mouse epiregulin (rmEreg) for 3 days (left panel). HFF were incubated in media containing rmEreg 100 ng/ml along with rat anti-human/mouse epiregulin antibody (middle panel) or hEreg NAb1 (right panel), n=4 (middle panel), n=6 (right panel) per antibody concentration. Data points show mean and standard error, which were fit by interpolating from a sigmoidal standard curve.
In order to validate the humanized antibody in mouse models of fibrosis, it was necessary to establish whether it cross-reacted with the mouse epiregulin homologue. To setup the assay, if recombinant mouse epiregulin could induce HFF proliferation was tested first, which it did similar to the human protein (FIG. 7, left panel). […] In contrast, hEreg NAb1 required >100-fold higher concentration to inhibit HFF proliferation by mouse epiregulin protein (FIG. 7, right panel). […] These findings are likely due to raising the humanized antibody in mice, which would negatively select out B cells that produce a self-reactive antibody.

In assay [4] the test system is other EGFR ligands. Kind of assay: Rescue of HFF growth by other EGFR ligands in presence of hEreg NAb1. In kind it is cell-based, human. Particulars: 5 mg/ml hEreg NAb1; recombinant EGFR ligands 0.1, 1, 10 ng/ml; 3 days. The method, then:
HFF were incubated with 5 mg/ml hEreg NAb1 alone and recombinant EGFR ligands at 0.1 ng/ml. 1 ng/ml, and 10 ng/ml for 3 days prior to quantification.
Next it was considered whether hEreg NAb1 could inhibit other EGFR ligands (commercially available from R&D Systems). HFF was incubated with 5 mg/ml of hEreg NAb1 alone, which as discussed above, inhibits epiregulin-driven growth of HFF. Whether addition of the other six EGFR ligands could rescue HFF growth through their activation of EGFR was tested. Compared to the hEreg NAb1 alone control, the lowest concentration tested of each EGFR ligand, 0.1 ng/ml, was sufficient to rescue HFF growth (FIG. 8).

Assay [5] has as its system skin biopsies from two patients with sGvHD. Kind of assay: Sclerotic GvHD patient skin explants, fibrosis protein markers in supernatant by ELISA. The class given is cell-based, human. Particulars: 2.5 mg/ml, 10 days. Here is the method:
Paired skin biopsies from right arm and left abdomen of two patients with sGvHD were incubated with 2.5 mg/ml hEreg NAb1 or isotype control IgG1 antibody for 10 days. (FIG. 21A) Photos of patient fibrotic skin. (FIGS. 21B-21C) Media was changed every 48 hours and the level of fibrosis protein markers in the supernatant was quantified by ELISA (Abcam kits ab213831, ab210966, ab219046, ab187394, ab179886).
It was then investigated whether hEreg NAb1 could reduce fibrosis similar to the epiregulin neutralizing rat antibody. To investigate whether hEreg NAb1 reduces fibrosis protein markers, hEreg NAb1 was tested on skin biopsies from two patients with the fibrotic form of graft-vs-host disease (sGvHD). Patient I was a person 3 years post stem cell transplant from matched unrelated donor for treatment of myelodysplastic syndrome not on any immunosuppressive therapies. Patient 2 was a person 3 years post stem cell transplant from matched unrelated donor for treatment of acute myelogenous leukemia not on any immunosuppressive therapies. Paired 4 mm skin biopsies from the most affected skin of the right arm of patient 1 and left abdomen of patient 2 were obtained (FIG. 21A). Skin explants were incubated with 2.5 mg/ml hEreg NAb1 or isotype control IgG1 antibody for 10 days.
In general terms: ELISA stands for enzyme-linked immunosorbent assay.

Setting [6] is: skin explants from either patient.

B1: hEreg NAb1: humanized epiregulin neutralizing antibody from hybridoma wells M3-5; VH SEQ ID NO: 1, VL SEQ ID NO: 6 (antibody, V domains shown)
VH: HLQLQESGPGLVKSSETLSLTCSVSGGSISSSGYYWGWIRQPPGKGLEWIGSFYYSGNTYYNPSLKSRVTISADTSKSQYSLKLSSVTAADTAVYYCARHPFNWNDHYHYMDVWGNGTTVTVSS
VL: DIQMTQSPSSLSASVGDSVTITCRASQSISNYLNWYQKKPGKAPKVLIYAASSLQSGVPSRFSGSGSGTDFTLTISSLQPEDFATYYCQQSYITSITFGQGTRLEIK
B1: the “inhibition of human epiregulin-induced HFF proliferation” value in assay [1] (3 days) is given as “inhibited HFF proliferation in a concentration-dependent manner; also recorded: inhibits”. Also, in assay [1] (day 3), the “IC50, inhibition of epiregulin-induced HFF proliferation” value was 0.1 to 0.3 µg/mL. The “HFF growth / inhibition of endogenous full-length epiregulin” value in assay [2] was “decreased growth was observed; also recorded: inhibits full-length epiregulin protein”. Moreover, the “cross-reactivity for mouse epiregulin protein” value in assay [3] (HFF proliferation) is reported as “little cross-reactivity; also recorded: low cross-reactivity”. Further, the “fold higher concentration required to inhibit HFF proliferation by mouse epiregulin protein” value in assay [3] (HFF) was greater than 100 fold. The “cross-reactivity with / neutralization of other EGFR ligands” value in assay [4] is given as “does not cross-react; also recorded: does not neutralize”. Besides, in assay [5] (vs isotype control IgG1), the “fibrosis markers in sclerotic GvHD skin explants” value is reported as “reduces fibrosis markers”. For the same molecule, in assay [5] (patient 1, right arm), the “MCP-1 in supernatant vs IgG1 isotype control” value is on record as “significantly reduced expression”, the “TIMP1 in supernatant vs IgG1 isotype control” value is reported as “significantly reduced expression” and the “TNC in supernatant vs IgG1 isotype control” value was “significantly reduced expression”. Moreover, the “TNC in supernatant vs IgG1 isotype control” value in assay [5] (patient 2, left abdomen) is “significant reduction”. Besides, in assay [5] (setting [6]), the “fibronectin (FN) expression” value is listed as “did not reduce expression” and the “pro-collagen I alpha 1/pro-collagen I N-terminal propeptide (PINP) expression” value was “did not reduce expression”.

Source of the values: patent publication US20250154238A1, “METHODS AND COMPOSITIONS FOR TREATING AND PREVENTING FIBROSIS” (YALE UNIVERSITY, priority 2022, published 2025).
